Experimental data taken from US6159736.

System: Tn5 transposase hyperactive mutant EK54/MA56/LP372 (EK45/MA56/LP372 [sic] in example) E54K,M56A,L372P (Escherichia coli (transposon Tn5)?)
Experiment: cell_activity
Conditions: 1 µl electroporated into E. coli MG1655, KanR colonies

For “linearized plasmid with mosaic-end kanamycin transposon and donor backbone”, the activity (with Mg2+) was 6900 CFU.
In the case of “supercoiled plasmid with mosaic-end kanamycin transposon and donor backbone”, the activity (with Mg2+, none without transposase) is reported as 1600 CFU.
“released transposable element (PvuII cut) with kanamycin resistance cassette flanked by inverted mosaic ends” was tested, and the activity (no Mg2+, synaptic complex formed in vitro, with Mg2+ 3.9e3, 10 µl dialyzed without Mg2+ 5.5e5) was 53000 CFU.
